Assay results as given in patent US5753229.

Tests used:
[1] = target: Ag 2.15 (FC-2.15 antigen of breast tumor cells; membrane bands of 160 kDa, 130 kDa and 115 kDa) (human); experiment: cell ELISA on MCF-7 cells after periodate oxidation, against untreated cells
[2] = target: Ag 2.15 (FC-2.15 antigen of breast tumor cells; membrane bands of 160 kDa, 130 kDa and 115 kDa) (human)

% inhibition of reactivity by 10 mM periodate [1]: 47.1%
Residual clonogenic ability (%) after MAb and rabbit complement [2]: 11.7%
B1: monoclonal antibody FC-2.15 (antibody, V domains shown)
VH: VKLQESGGGLVQPGGSLKLSCAASGFDFSRYWMSYVRQAPGKGLEWIGEIDPDSSTINYTPSLKDKFIISRDNAKNTLYLQMSKVRSEDTALYYCARETGTPFDYWGQGTTLTVSS
VL: DIVMTQSPASLSVATGEKVTIRCITSTDIDDDMNWYEQKPGEPPKLLISEGNTLRPGVPSPFSSSGYGTDFVFTIENTHSEDVADYYCLQSDNMPFTFGSGTKLEIKP
